This is an account of results in patent publication US20140273151.

The target of this data set is T1, Substrate No. 19.
T1 chain: DEVD

B1: caspase-3 enzyme (Biovision Inc., Mountain View, Calif.) (protein)
chain: SGISLDNSYKMDYPEMGLCIIINNKNFHKSTGMTSRSGTDVDAANLRETFRNLKYEVRNKNDLTREEIVELMRDVSKEDHSKRSSFVCVLLSHGEEGIIFGTNGPVDLKKITNFFRGDRCRSLTGKPKLFIIQACRGTELDCGIETDSGVDDDMACHKIPVEADFLYAYSTAPGYYSWRNSKDGSWFIQSLCAMLKQYADKLEFMHILTRVNRKVATEFESFSFDATFHAKKQIPCIVSMLTKELYFYH
Consider B1, for which the “fluorescence signal over time (excitation 485 nm, emission 530 nm) in the presence of dsDNA; enzymatic cleavage assay” value was “The data demonstrates that Substrate No. 19 is a substrate for caspase-3 enzyme”.
